# B1: Cytochrome c-551 wild type, P00099 (protein)
# chain: MKPYALLSLLATGTLLAQGAWAEDPEVLFKNKGCVACHAIDTKMVGPAYKDVAAKFAGQAGAEAELAQRIKNGSQGVWGPIPMPPNAVSDDEAQTLAKWVLSQK
# B2: Cytochrome c-552 wild type, P15452 (protein)
# chain: MKKFLLVAVVGLAGITFANEQLAKQKGCMACHDLKAKKVGPAYADVAKKYAGRKDAVDYLAGKIKKGGSGVWGSVPMPPQNVTDAEAKQLAQWILSIK
# Details: pH 5, DSC, Unknown, reversible: yes, whole UniProt chain shown; for denaturant midpoint (higher = more stable): 25 °C, GdnHCl; for Tm / heat capacity change of unfolding / unfolding enthalpy (calorimetric): Thermal
# [1] = Pseudomonas aeruginosa (strain ATCC 15692 / DSM 22644 / CIP 104116 / JCM 14847 / LMG 12228 / 1C / PRS 101 / PAO1)
# [2] = Pseudomonas aeruginosa (strain ATCC 15692 / DSM 22644 / CIP 104116 / JCM 14847 / LMG 12228 / 1C / PRS 101 / PAO1), 47.3 °C
# [3] = Hydrogenobacter thermophilus (strain DSM 6534 / IAM 12695 / TK-6)
Protein,denaturant midpoint (higher = more stable) [1],Tm [2],heat capacity change of unfolding [2],Tm [1],heat capacity change of unfolding [1],unfolding enthalpy (calorimetric) [1],denaturant midpoint (higher = more stable) [3],Tm [3],heat capacity change of unfolding [3],unfolding enthalpy (calorimetric) [3]
B1,2.16 M,47.3 °C,1.07 kcal/mol/K,47.3 °C,0.72 kcal/mol/K,37.7 kcal/mol,,,,
B2,,,,,,,4.47 M,87.5 °C,0.9 kcal/mol/K,36.7 kcal/mol
